Laboratory results from publication PMC2112731.

Molecular target: F-actin in a glycerinated muscle fiber (rabbit (endogenous in psoas muscle fiber)) (UniProt P68135)
Test: fluorescence intensity of a labeled muscle fiber

phalloidin-(fluorescein isothiocyanate) FITC complex (peptide)
stoichiometry N (mol of the toxin per mol of actin): 1
